Sequences and labels used below:
B1: VRDN-02027 (antibody, V domains shown)
VH: QVQLQESGPGLVKPSETLSLTCTVSGYSITGGYLWNWIRQPPGKGLEWIGYISYDGTNNYKPSLKDRVTISRDTSKNQFSLKLSSVTAADTAVYYCARYGRVFFHYWGQGTLVTVSS
VL: DIVMTQSPLSLPVTPGEPASISCRSSQSIVHSNGNTYLQWYLQKPGQSPQLLIYKVSNRLYGVPDRFSGSGSGTDFTLKISRVEAEDVGVYYCFQGSHVPWTFGQGTKVEIK
B2: VRDN-02004 (antibody, V domains shown)
VH: B1 VH with I29H, H105D
VL: B1 VL
B3: VRDN-02003 (antibody, V domains shown)
VH: B1 VH with S28H, H105D
VL: B1 VL
B4: VRDN-02030 (antibody, V domains shown)
VH: B1 VH with H105D
VL: B1 VL with S25H
B5: VRDN-02037 (antibody, V domains shown)
VH: B1 VH with H105D
VL: B1 VL with N33H
B6: VRDN-02031 (antibody, V domains shown)
VH: B1 VH with H105D
VL: B1 VL with S26H
B7: VRDN-02028 (antibody, V domains shown)
VH: B1 VH with H105D, Y106H
VL: B1 VL
B8: VRDN-02041 (antibody, V domains shown)
VH: B1 VH with H105D
VL: B1 VL with Y37H
B9: VRDN-02036 (antibody, V domains shown)
VH: B1 VH with H105D
VL: B1 VL with S32H
B10: VRDN-02040 (antibody, V domains shown)
VH: B1 VH with H105D
VL: B1 VL with T36H
B11: VRDN-02029 (antibody, V domains shown)
VH: B1 VH with H105D
VL: B1 VL with R24H
B12: VRDN-02046 (antibody, V domains shown)
VH: B1 VH with H105D
VL: B1 VL with S57H
B13: VRDN-02035 (antibody, V domains shown)
VH: B1 VH with H105D
VL: B1 VL with V30H
B14: VRDN-02044 (antibody, V domains shown)
VH: B1 VH with H105D
VL: B1 VL with K55H
B15: VRDN-02039 (antibody, V domains shown)
VH: B1 VH with H105D
VL: B1 VL with N35H
B16: VRDN-02032 (antibody, V domains shown)
VH: B1 VH with H105D
VL: B1 VL with Q27H
B17: VRDN-02042 (antibody, V domains shown)
VH: B1 VH with H105D
VL: B1 VL with L38H
B18: VRDN-02048 (antibody, V domains shown)
VH: B1 VH with H105D
VL: B1 VL with R59H
B19: VRDN-02038 (antibody, V domains shown)
VH: B1 VH with H105D
VL: B1 VL with G34H
B20: VRDN-02047 (antibody, V domains shown)
VH: B1 VH with H105D
VL: B1 VL with N58H
B21: VRDN-02034 (antibody, V domains shown)
VH: B1 VH with H105D
VL: B1 VL with I29H
B22: VRDN-02045 (antibody, V domains shown)
VH: B1 VH with H105D
VL: B1 VL with V56H
B23: VRDN-02043 (antibody, V domains shown)
VH: B1 VH with H105D
VL: B1 VL with Q39H
B24: VRDN-02033 (antibody, V domains shown)
VH: B1 VH with H105D
VL: B1 VL with S28H

Numbering of substitutions follows the chain as printed.

The target of the first test is Recombinant human his-tagged IGF R extracellular domain protein (human) (UniProt P08069). Briefly: SPR, Ab captured via anti-huIgG Fc, dissociation at pH 6. In general terms: In SPR one partner is held on a chip, and binding of the other changes the refractive index at the surface.
On to B1, for which the Kd (usually the constant that tells how readily two partners part at equilibrium) came to 2.85 nM; the koff (commonly a measure of how fast the partners let go of each other) turned out to be 0.000121 s⁻¹; the kon – broadly, the rate constant with which the complex forms – amounted to 42600 M⁻¹ s⁻¹.

In the case of B2, the Kd worked out at 6.19 nM, the koff was 0.000593 s⁻¹ and the kon was 95700 M⁻¹ s⁻¹.

With B3, the Kd is 1 nM, the koff is 9.44e-05 s⁻¹ and the kon turned out to be 94300 M⁻¹ s⁻¹.

In the case of B4, the Kd stood at 1.09 nM, the koff was 9.65e-05 s⁻¹ and the kon was determined as 88900 M⁻¹ s⁻¹.

On to B5, for which the Kd was determined as 1.44 nM, the koff was determined as 0.000101 s⁻¹ and the kon came to 70000 M⁻¹ s⁻¹.

On to B6, for which the Kd came out at 1.22 nM, the koff is 0.000115 s⁻¹ and the on-rate constant (kon) was found to be 94400 M⁻¹ s⁻¹.

B7: the Kd is 1.11 nM, the koff came to 0.000107 s⁻¹ and the kon was 97000 M⁻¹ s⁻¹.

For the molecule B8, the Kd amounted to 1.16 nM, the koff came to 0.000102 s⁻¹ and the kon was found to be 87800 M⁻¹ s⁻¹.

For the molecule B9, the Kd turned out to be 1.08 nM, the koff was 0.000102 s⁻¹ and the kon was 94200 M⁻¹ s⁻¹.

As to B10, the Kd turned out to be 1.04 nM, the koff was determined as 9.07e-05 s⁻¹ and the kon worked out at 87000 M⁻¹ s⁻¹.

With B11, the Kd is 1.1 nM, the koff came to 9.38e-05 s⁻¹ and the kon is 85600 M⁻¹ s⁻¹.

Regarding B12, the Kd is 1.29 nM, the koff turned out to be 0.000103 s⁻¹ and the kon was 79900 M⁻¹ s⁻¹.

As to B13, the Kd came out at 1.22 nM, the koff came out at 0.000107 s⁻¹ and the kon came out at 87600 M⁻¹ s⁻¹.

As for B14, the Kd was determined as 0.759 nM, the koff is 6.27e-05 s⁻¹ and the kon amounted to 82600 M⁻¹ s⁻¹.

On to B15, for which the Kd worked out at 1.36 nM, the koff was 0.000109 s⁻¹ and the kon was found to be 79800 M⁻¹ s⁻¹.

B16: the Kd worked out at 0.998 nM, the koff stood at 9.61e-05 s⁻¹ and the kon was determined as 96300 M⁻¹ s⁻¹.

In the case of B17, the Kd came out at 1.08 nM, the koff was determined as 0.000101 s⁻¹ and the kon was determined as 94100 M⁻¹ s⁻¹.

With B18, the Kd was 1.03 nM, the koff stood at 8.1e-05 s⁻¹ and the kon was determined as 78800 M⁻¹ s⁻¹.

As to B19, the Kd was found to be 1.31 nM, the koff is 0.000111 s⁻¹ and the kon was 84800 M⁻¹ s⁻¹.

With B20, the Kd amounted to 1.48 nM, the koff was determined as 9.84e-05 s⁻¹ and the kon worked out at 66600 M⁻¹ s⁻¹.

In the case of B21, the Kd was determined as 1.26 nM, the koff stood at 0.000107 s⁻¹ and the kon turned out to be 85000 M⁻¹ s⁻¹.

In the case of B22, the Kd turned out to be 1.66 nM, the koff turned out to be 8.63e-05 s⁻¹ and the kon worked out at 51900 M⁻¹ s⁻¹.

Take B23: the Kd was 1.13 nM, the koff came out at 9.08e-05 s⁻¹ and the kon amounted to 80400 M⁻¹ s⁻¹.

In the case of B24, the Kd came to 1.19 nM, the koff is 0.00011 s⁻¹ and the kon was found to be 92700 M⁻¹ s⁻¹.

For a further test the target is unchanged. Briefly: SPR, Ab captured via anti-huIgG Fc, pH 7.4.
For the molecule B1, the Kd came to 6.73 nM, the koff was found to be 0.000957 s⁻¹ and the kon is 142000 M⁻¹ s⁻¹.

On to B2, for which the Kd was found to be 7.78 nM, the koff is 0.000684 s⁻¹ and the kon turned out to be 87800 M⁻¹ s⁻¹.

With B3, the Kd turned out to be 0.423 nM, the koff is 4.72e-05 s⁻¹ and the kon turned out to be 112000 M⁻¹ s⁻¹.

Consider B4, for which the Kd turned out to be 0.646 nM, the koff turned out to be 5.48e-05 s⁻¹ and the kon turned out to be 84800 M⁻¹ s⁻¹.

As to B5, the Kd was 0.844 nM, the koff turned out to be 6.43e-05 s⁻¹ and the kon is 76200 M⁻¹ s⁻¹.

For B6, the Kd worked out at 0.468 nM, the koff was determined as 4.56e-05 s⁻¹ and the kon was determined as 97300 M⁻¹ s⁻¹.

Consider B7, for which the Kd was 0.525 nM, the koff came out at 5.4e-05 s⁻¹ and the kon worked out at 103000 M⁻¹ s⁻¹.

Regarding B8, the Kd was found to be 0.795 nM, the dissociation rate constant (koff) turned out to be 7.59e-05 s⁻¹ and the kon was 95500 M⁻¹ s⁻¹.

On to B9, for which the Kd was determined as 0.444 nM, the koff was found to be 4.42e-05 s⁻¹ and the kon amounted to 99500 M⁻¹ s⁻¹.

Take B10: the Kd stood at 1.22 nM, the off-rate (koff) came to 0.000104 s⁻¹ and the on-rate (kon) stood at 85400 M⁻¹ s⁻¹.

With B11, the Kd was 0.599 nM, the koff was determined as 5.53e-05 s⁻¹ and the kon was found to be 92400 M⁻¹ s⁻¹.

As for B12, the Kd is 0.569 nM, the koff came out at 5.23e-05 s⁻¹ and the kon turned out to be 92000 M⁻¹ s⁻¹.

B13: the Kd stood at 0.646 nM, the koff came out at 6.32e-05 s⁻¹ and the kon was 97800 M⁻¹ s⁻¹.

With B14, the Kd amounted to 0.551 nM, the koff came to 4.69e-05 s⁻¹ and the on-rate constant (kon) was found to be 85200 M⁻¹ s⁻¹.

Regarding B15, the Kd was found to be 0.586 nM, the koff came to 5.26e-05 s⁻¹ and the kon came out at 89800 M⁻¹ s⁻¹.

As to B16, the Kd amounted to 0.769 nM, the koff stood at 7.16e-05 s⁻¹ and the kon is 93100 M⁻¹ s⁻¹.

Consider B17, for which the Kd was determined as 0.704 nM, the koff amounted to 7.31e-05 s⁻¹ and the kon is 104000 M⁻¹ s⁻¹.

As to B18, the Kd was 0.55 nM, the koff stood at 4.17e-05 s⁻¹ and the kon came out at 75700 M⁻¹ s⁻¹.

On to B19, for which the Kd is 0.649 nM, the koff was determined as 5.36e-05 s⁻¹ and the kon is 82600 M⁻¹ s⁻¹.

Consider B20, for which the Kd was 0.622 nM, the koff turned out to be 5.34e-05 s⁻¹ and the kon was determined as 85900 M⁻¹ s⁻¹.

Regarding B21, the Kd came to 1.03 nM, the koff amounted to 0.000105 s⁻¹ and the kon was determined as 101000 M⁻¹ s⁻¹.

As for B22, the Kd turned out to be 1.1 nM, the koff came to 6.49e-05 s⁻¹ and the kon is 59200 M⁻¹ s⁻¹.

Take B23: the Kd is 0.746 nM, the koff was found to be 6.22e-05 s⁻¹ and the kon came to 83400 M⁻¹ s⁻¹.

With B24, the Kd was found to be 0.822 nM, the koff amounted to 8.1e-05 s⁻¹ and the kon was 98500 M⁻¹ s⁻¹.

The values above are taken from patent US20240360227A1.
